From PMC3204800 come the findings set out here.

Data set [1] addresses Third plant homeodomain (PHD3) finger of MLL, residues 1565-1627 (human) (UniProt Q03164). In words: ITC. On the technique in general: In ITC the heat of successive injections is recorded.
For the next data set, the target named is Cyp33 RRM domain (human, UniProt Q9UNP9 1-90). Description: NMR.
Sequence of Cyp33 RRM domain (Q9UNP9 1-90): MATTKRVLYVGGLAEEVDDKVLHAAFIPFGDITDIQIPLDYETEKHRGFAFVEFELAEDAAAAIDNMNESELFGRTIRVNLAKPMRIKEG

Sequence of Third plant homeodomain (PHD3) finger of MLL, residues 1565-1627 (human) (Q03164 1565-1627): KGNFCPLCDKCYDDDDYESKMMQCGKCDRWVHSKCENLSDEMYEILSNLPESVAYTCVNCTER

“Cyp33 RRM domain L39A mutant (from UniProt Q9UNP9 1-90) (domain or fragment)” came in with a fold reduction of affinity against the wild type in data set [1] of 10 fold.

Molecule “Cyp33 RRM domain F49A mutant (from UniProt Q9UNP9 1-90) (domain or fragment)” returned a fold reduction of affinity against the wild type in data set [1] of 35 fold. In data set [1], “RRM domain of human Cyclophilin 33 (Cyp33), residues 1-90 (from UniProt Q9UNP9 1-90) (domain or fragment)” came in with a Kd of 1.9 µM and a dH of -10 kcal. In turn, AAUAAA (ssRNA) [AAUAAA RNA] had a dissociation constant (Kd) with Cyp33 RRM domain of 198 ± 11 µM.

The Kd is the concentration at which binding is half-saturated. Lower therefore signals tighter binding.
